Experiments:
[1] = biological target: T1, CBL (47-357) A223R (UniProt P22681 47-357); assay: Ni-NTA co-purification, low salt (0.15 M NaCl), Coomassie SDS-PAGE
T1 construct: range 47-357; Point mutant within Duet-His-Δlinker-hSLAP2-CBL; also called A223R (CBL mutant)
T1 sequence (looked up): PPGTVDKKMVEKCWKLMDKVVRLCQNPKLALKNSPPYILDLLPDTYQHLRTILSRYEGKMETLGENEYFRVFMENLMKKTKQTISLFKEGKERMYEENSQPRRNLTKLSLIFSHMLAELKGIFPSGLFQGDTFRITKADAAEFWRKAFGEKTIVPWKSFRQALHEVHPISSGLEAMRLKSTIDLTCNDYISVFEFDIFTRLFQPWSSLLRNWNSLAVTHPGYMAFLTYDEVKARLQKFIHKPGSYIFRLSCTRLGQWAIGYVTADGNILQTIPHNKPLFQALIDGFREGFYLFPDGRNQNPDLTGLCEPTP
Protocol: (§1) Cell pellets were resuspended in either high or low salt (as for high salt except 25 mM HEPEs pH 7.5, 150 mM NaCl) lysis buffer and purified as above on Ni-NTA agarose (Qiagen) with wash buffer (25 mM HEPEs pH 7.5, 150 mM NaCl, 2% glycerol, 20 mM imidazole, 10 mM βME). Bead slurry was mixed with SDS 2X loading buffer (125 mM Tris pH 6.8, 4% SDS, 20% glycerol, 0.715 M βME, bromophenol blue), boiled, and analyzed by 10 or 12.5% SDS-PAGE, stained with Coomassie blue.

[2] = biological target: T2, CBL (47-357), co-expressed from pETDuet-1 MCS2 (UniProt P22681 47-357); assay: Ni-NTA co-purification from Duet co-expression, high salt (0.5 M NaCl), Coomassie SDS-PAGE
T2 construct: range 47-357; Untagged partner in the Duet co-purification trials; also called CBL TKBD
T2 sequence (looked up): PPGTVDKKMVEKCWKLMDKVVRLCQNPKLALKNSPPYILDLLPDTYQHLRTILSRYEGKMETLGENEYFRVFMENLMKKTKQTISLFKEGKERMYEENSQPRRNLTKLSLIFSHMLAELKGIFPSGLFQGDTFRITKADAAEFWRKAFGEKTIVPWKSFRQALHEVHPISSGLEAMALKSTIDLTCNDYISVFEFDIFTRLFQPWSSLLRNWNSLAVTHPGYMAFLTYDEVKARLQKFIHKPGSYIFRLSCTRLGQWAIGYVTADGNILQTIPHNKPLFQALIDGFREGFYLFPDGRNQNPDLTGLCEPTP
Protocol: as §1

[3] = biological target: T3, CBL (47-357) S226E (UniProt P22681 47-357); assay: Ni-NTA co-purification, low salt (0.15 M NaCl), Coomassie SDS-PAGE
T3 construct: range 47-357; Point mutant within Duet-His-Δlinker-hSLAP2-CBL; also called S226E (CBL mutant)
T3 sequence (looked up): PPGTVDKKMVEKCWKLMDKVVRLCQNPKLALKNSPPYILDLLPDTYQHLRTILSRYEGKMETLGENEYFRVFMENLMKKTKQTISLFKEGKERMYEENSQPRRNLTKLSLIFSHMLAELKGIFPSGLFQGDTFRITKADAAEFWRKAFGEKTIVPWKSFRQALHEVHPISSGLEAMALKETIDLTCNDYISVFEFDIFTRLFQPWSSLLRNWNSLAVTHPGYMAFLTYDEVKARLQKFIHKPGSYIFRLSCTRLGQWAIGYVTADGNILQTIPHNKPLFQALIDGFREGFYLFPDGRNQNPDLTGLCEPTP
Protocol: as §1

[4] = biological target: the molecule itself; assay: X-ray crystal structure; two SLAP2 helices in the asymmetric unit

B1: Trx-His(6)-Δlinker-hSLAP2 L241R (other)
chain: EAERSKATAVALGSFPAGGPAELSLRLGEPLTIVSEDGDWWTVLSEVSGREYNIPSVHVAKVSHGWLYEGLSREKAEELLLLPGNPGGAFLIRESQTRRGSYSLSVRLSRPASWDRIRHYRIHCLDNGWLYISPRLTFPSLQALVDHYSELADDICCLLKEPCVLQRAGPLPGKDIPLPVTVQRTPLNWKELDSSLLFSEAATGEESLLSEGRRESLSFYISLNDEAVSLDDA
notes: Point mutant within Duet-His-Δlinker-hSLAP2-CBL; not shown: N-terminal thioredoxin (Trx)-His(6)-TEV-site tag and linker of the modified pET32a (Δlinker version)
- binding result [1]: no binding
- binding result [2]: no binding

B2: Trx-His(6)-Δlinker-hSLAP2 S244E (other)
chain: EAERSKATAVALGSFPAGGPAELSLRLGEPLTIVSEDGDWWTVLSEVSGREYNIPSVHVAKVSHGWLYEGLSREKAEELLLLPGNPGGAFLIRESQTRRGSYSLSVRLSRPASWDRIRHYRIHCLDNGWLYISPRLTFPSLQALVDHYSELADDICCLLKEPCVLQRAGPLPGKDIPLPVTVQRTPLNWKELDSSLLFSEAATGEESLLSEGLREELSFYISLNDEAVSLDDA
notes: as for B1
- binding result [3]: no binding

B3: Trx-His(6)-Δlinker-hSLAP2 L245P (other)
chain: EAERSKATAVALGSFPAGGPAELSLRLGEPLTIVSEDGDWWTVLSEVSGREYNIPSVHVAKVSHGWLYEGLSREKAEELLLLPGNPGGAFLIRESQTRRGSYSLSVRLSRPASWDRIRHYRIHCLDNGWLYISPRLTFPSLQALVDHYSELADDICCLLKEPCVLQRAGPLPGKDIPLPVTVQRTPLNWKELDSSLLFSEAATGEESLLSEGLRESPSFYISLNDEAVSLDDA
notes: Point mutant within Duet-His-Δlinker-hSLAP2-CBL; not shown: N-terminal Trx-His(6)-TEV site fusion of the modified pET32a (Δlinker form)
- binding result [2]: no binding

B4: mouse SLAP2 (residues 28-259) (other, UniProt Q8R4L0 28-259, looked up)
chain: QPERHKVTAVALGSFPAGEQARLSLRLGEPLTIISEDGDWWTVQSEVSGREYHMPSVYVAKVAHGWLYEGLSREKAEELLLLPGNPGGAFLIRESQTRRGCYSLSVRLSRPASWDRIRHYRIQRLDNGWLYISPRLTFPSLHALVEHYSELADGICCPLREPCVLQKLGPLPGKDTPPPVTVPTSSLNWKKLDRSLLFLEAPASGEASLLSEGLRESLSSYISLAEDPLDDA
notes: range 28-259; Trx-His(6) tag removed with thrombin; In the crystal only residues 237-255 are seen; also called mSLAP2; Trx-His(6)-mSLAP2 (before thrombin cleavage)
- binding result [4]: binds

— patent US20230212239A1, “INHIBITORS OF CBL AUTOINHIBITION AND RELATED METHODS” (THE HOSPITAL FOR SICK CHILDREN, priority 2020, published 2023)
